Results reported in publication PMC4154664.

Substrate: CCCCCCCCCCCCCC(=O)SCCNC(=O)CCNC(=O)[C@H](O)C(C)(C)COP(=O)(O)OP(=O)(O)OC[C@H]1O[C@@H](n2cnc3c(N)ncnc32)[C@H](O)[C@@H]1OP(=O)(O)O
Assay: purified protein

Row | Protein | Km [µM]
1 | B. malayi NMT (BmNMT, myristoyl-CoA:protein N-myristoyltransferase) (Brugia malayi) (protein) MKEPPAGNIKLDDEDEKMMAAGNSKMDQNNDKENDAGDESIQNVTGRNSPTAVIDLKELTESTLMKKFEMLTVGGTSAAKHITEAQRHKYLFWDTQPVPKINEMVTENRAIEPPLDISEVREEPFSLPDPFCWCDIEINSVKELTELYTLLTENYVEDDDNMFRFDYSPEFLLWALKAPGWMKNWHCGVRAKSNGKLIAFISAIPSVIRVYDKQIKMVEINFLCVHKKLRSKRVAPVLIREITRRVNREGIFQAVFTAGVVLPKPIATCRYWHRSLNPKKLIEVKFSHLSRKMTMQRTLKLYKLPDHPRTANLVPMKKCHIDGAYGLLQCYLKKFDLSPQFTRADFEHFFMPREDVIYSYVALNEEDSKVSDLISFYSLPSSVMHHPQYKSIRAAYSFYNVATSVTLKQLINDALILARNCGFDVFNALDLMDNKEILEDLKFGIGDGNLQYYLYNWKCPDIIPEKIGLVLQ | 4.4
2 | C. elegans NMT (CeNMT, myristoyl-CoA:protein N-myristoyltransferase) (Caenorhabditis elegans) (protein) MSHGHSHDGAPCGGHHGDDGAGGSRPSVNDVQALVDQLRLAGVDVSNMPNIPTAPRDMDEARSKSFQFWSTQPVPQMDETVPADVNCAIEENIALDKVRAEPFSLPAGFRWSNVDLSDEEQLNELYNLLTRNYVEDDDSMFRFDYSADFLKWALQVPGFRPEWHCGVRADSNNRLLAFIGAVPQTVRVYDKTVNMVEINFLCVHKNLRSRRVAPVLIREITRRVNVTGIFQAAFTAGIVIPKPVSVCRYYHRSLNPRKLIDVRFSHLSAKMTMARTIKLYKLPEETATRNLREMKSTDVPQVFKLLTTSLKQYSLAPVYNSEEELAHALVPKKGVVYSYVAENQNGKITDFVSFYSLPSTVMGHTTHKTIYAAYLYYYVAGSVTPKQLINDSLILANREKFDVFNALDLMHNEKIFSDLKFGKGDGNLQYYLYNWKCADMKPSQIGLVLQ | 12.2
